# “Also recorded” adds a separate entry of the source.
# Key:
# [1] = tested on: 4T1 cells; assay: Repeated dosing of Nani-P2 alternating with cyclophosphamide in 4T1 tumor-bearing mice; assay type: in vivo, BALB/c mice; details: by day 42; 80 mg/kg IP weekly from day 10
# Procedure: Four groups of 10 BALB/c mice were implanted with 1×10^4 4T1 cells SC into the mammary fat pad. Treatment was initiated when tumor diameters reached 4-5 mm, on day 10. Control mice were injected IV with PBS at 3 days intervals, while alternating treatment mice received 3 doses of drug every 3 days in rotating 10 day cycles. Tumor burden (tumor size mm^3) was calculated using a standard formula. CY: (cyclophosphamide alone) mice were injected IP weekly with 80 mg/kg per mouse beginning on day 10. Cy/Nani-P2: (cyclophosphamide first followed by Nani-P2) mice were first injected IP with cyclophosphamide (80 mg/kg) at 3 days intervals for three doses starting at day 10 and then injected IV with Nani-P2 (40 ng) at 3 days intervals for three doses in rotation. The cycle of 3 doses of CY followed by 3 doses of Nani-P2 was repeated until day 50. Nani-P2/CY: (Nani-P2 first followed by cyclophosphamide): mice were first injected IV with Nani-P2 (40 ng) at 3 day intervals for 3 doses starting on day 10 and then injected i.p. with cyclophosphamide at 3 day intervals in rotation. The cycle of 3 doses of Nani-P2 followed by 3 doses of CY was repeated until day 50.
# [2] = tested on: 4T1 breast tumor cells; assay: 4T1 breast tumor growth in BALB/c mice; assay type: in vivo
# Excerpt: Female BALB/c mice 6 to 8 weeks old were purchased from the Jackson Laboratory (Bar Harbor, […].). Mice were acclimated for at least 1 week before use. Mice were kept in pathogen-free conditions at the Animal Maintenance Facility of the Columbia University of Medical Center and all experiments were approved by the Institutional Animal Care and Use Committee of Columbia University of Medical Center.
# 4T1 cells, a 6-thioguanine-resistant cell line derived from a BALB/c spontaneous mammary carcinoma was obtained from ATCC; TS/A, a murine adenocarcinoma cell line was provided by Dr. Sandra Demaria (Demaria S. et al. Clin Cancer Res. 11:728-34, 2005); and SM1, the BALB/C-derived mammary carcinoma was kindly was provided by Dr. James Allison, University of California, Berkeley. All tumor cell lines were cultured in DMEM, supplemented with 2 mM L-glutamine, 10 mM HEPES, 150 units/ml penicillin/streptomycin, 10% heat-inactivated FCS (Invitrogen), 50 μM 2-mercaptoethanol (Sigma), and 50 mg/L gentamicin (Lanza).
# BALB/c were injected (SC) with 1×10^4 4T1, 1×10^5 TS/A or 2×10^5 SM1 cells, respectively, in the left mammary pad on day 0. Immunotherapy was performed by directly injecting a Tat derivative into the right flank at 0, 7, 12, and 17 days after establishment of tumors. The control group received PBS injection. […] Tumor burden (tumor volume) was measured and recorded three times weekly. Animals were sacrificed when tumors reached a volume of 15 mm in diameter and the tumors harvested and weighed.
# The therapeutic effect of systemic administration of synthetic, Tat-derived compositions in murine models of breast cancer was investigated. To compare the relative protection conferred by a small panel of different derivatives against primary breast tumor growth, female BALB/c mice were injected with 1×10^4 4T1 breast tumor cells SC into the mammary pad, and then treated with 400 ng partially-purified Tat derivatives at day 0, 7, 14 and 21 (SC injection in PBS) into the draining axillary lymph nodes.
molecule,measurement,setting,value
"O=P1(N(CCCl)CCCl)NCCCO1 (stereo not drawn) [cyclophosphamide, reference compound]",treated mice dead,[1],10/10
"Nani-P1: HIV Tat derivative polypeptide, SEQ ID NO: 2; internal prolines of the SH3-binding site each substituted as alanine (protein, Nani-P1 modified HIV Tat sequence) MEPVDANLEAWKHAGSQPRKTACTTCYCKKCCFHCQVCFTRKGLGISYGRKKRRQRRRAPQDSQTHQASLSKQPASQSRGDPTGPTESKKKVERETETDPFD",tumor burden compared to control mice receiving PBS,"[2]; 400 ng partially-purified derivative SC day 0, 7, 14, 21, apparent from day 15 (p<0.05)",significantly reduced tumor burden
"Nani-P3: HIV Tat derivative polypeptide, SEQ ID NO: 4; serine-rich TARA homology sequence replaces the SH3 binding sequence (protein, Nani-P3 modified HIV Tat sequence) METPLKEQENSLESCREHSSSISEVDVPTPVSCLRKGGRCWNRCIGNTRQIGSCGVPFLKCCKRKPFTRKGLGISYGRKKRRQRRRAPQDSQTHQASLSKQPASQSRGDPTGPTESKKKVERETETDPFD",4T1 primary tumor growth vs controls,"[2]; 400 ng or 2 μg SC days 0, 7, 14, 21",less effective at suppressing 4T1 primary tumor growth; also recorded: no difference

# Source: patent US9206239B2, “Treatment of cancers with immunostimulatory HIV Tat derivative polypeptides” (PIN Pharma, Inc., priority 2009, dated 2015)
